Data as given in patent US20220389111A1 (SHANGHAI EPIMAB BIOTHERAPEUTICS, published 2022).
Residue numbers refer to the chain shown, from its start.

T1: human CD39 protein (recombinant) (human, UniProt P49961 38-478, limits assumed)
T1 construct: Soluble recombinant protein coated on ELISA plates and used in the protein-based ATPase assay; also called recombinant CD39 protein; recombinant purified human CD39 protein
T1 sequence: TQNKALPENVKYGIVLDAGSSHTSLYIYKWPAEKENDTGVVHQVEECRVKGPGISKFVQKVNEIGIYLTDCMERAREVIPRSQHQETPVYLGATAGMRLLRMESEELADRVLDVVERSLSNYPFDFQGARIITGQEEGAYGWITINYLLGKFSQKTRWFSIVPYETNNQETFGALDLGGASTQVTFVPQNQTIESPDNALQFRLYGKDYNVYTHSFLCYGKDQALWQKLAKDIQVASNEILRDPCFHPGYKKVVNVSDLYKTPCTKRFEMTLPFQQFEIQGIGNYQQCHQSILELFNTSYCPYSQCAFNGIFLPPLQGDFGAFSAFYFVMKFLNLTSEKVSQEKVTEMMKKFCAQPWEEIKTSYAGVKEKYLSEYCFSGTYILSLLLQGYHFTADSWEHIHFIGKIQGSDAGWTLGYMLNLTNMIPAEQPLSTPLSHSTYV

B1: EM0004-38c (antibody, human IgG1, kappa, L234A L235A, V domains shown)
VH: QVQLQQPGTELVKPGASVKLSCKASGYTFTSFWMHWVKQRPGQGLEWIGNINPRNGATKYNEKFRSKVTLTADKTSSTAYMHLSSLTSEDSAVYYCAREDYDEIYYAMDSWGQGTSVTVSS
VL: QNVLTQSPAIMSASPGEKVTMTCSASSSVIYMYWFQQKPGSSPRVLIYDTSNLASGVPARFSGSGSGTSYSLTISRMEAEDAATYYCQQWSTYPLTFGAGTKLELKR
notes: chimeric mAb638; also called EM04-38c
B2: EM0004-38c1 (antibody, human IgG1, kappa, L234A L235A, name in Kabat numbering, V domains shown)
VH: B1 VH with N55Q
VL: B1 VL
notes: chimeric mAb638 variant; also called EM004-38c1
B3: EM0004-38c2 (antibody, human IgG1, kappa, L234A L235A, name in Kabat numbering, V domains shown)
VH: B1 VH with G56A
VL: B1 VL
notes: chimeric mAb638 variant
B4: HuEM0004-38-13 (antibody, human IgG1, kappa, L234A L235A, V domains shown)
VH: EVQLVQSGAEVKKPGASVKVSCKASGYTFTSFWMHWVRQAPGQGLEWMGNINPRNGATKYNEKFRSRVTLTADKSISTAYMELSRLRSDDTAVYYCAREDYDEIYYAMDSWGQGTTVTVSS
VL: ENVLTQSPATLSLSPGERATLSCSASSSVIYMYWFQQKPGQSPRVLIYDTSNLASGIPARFSGSGSGTDYTLTISSLEPEDFAVYYCQQWSTYPLTFGQGTKLEIKR
notes: humanized mAb638, human IgG1/kappa
B5: HuEM0004-38-7 (antibody, human IgG1, kappa, L234A L235A, V domains shown)
VH: B4 VH with L70M
VL: B4 VL with S42A, V45L
notes: as for B4
B6: HuEM0004-38-20 (antibody, human IgG1, kappa, L234A L235A, V domains shown)
VH: B4 VH with M48I, R67K
VL: B4 VL with I57V
notes: as for B4
B7: HuEM0004-38-16 (antibody, human IgG1, kappa, L234A L235A, V domains shown)
VH: B4 VH with L70M, K74T
VL: B4 VL with I57V
notes: as for B4
B8: HuEM0004-38-15 (antibody, human IgG1, kappa, L234A L235A, V domains shown)
VH: B4 VH with M48I, R67K
VL: B4 VL
notes: as for B4
B9: HuEM0004-38-18 (antibody, human IgG1, kappa, L234A L235A, V domains shown)
VH: B4 VH
VL: B4 VL with I57V
notes: as for B4
B10: HuEM0004-38-19 (antibody, human IgG1, kappa, L234A L235A, V domains shown)
VH: B4 VH with M48I
VL: B4 VL with I57V
notes: as for B4
B11: HuEM0004-38-11 (antibody, human IgG1, kappa, L234A L235A, V domains shown)
VH: B4 VH with L70M, K74T
VL: B4 VL
notes: as for B4
B12: HuEM0004-38-12 (antibody, human IgG1, kappa, L234A L235A, V domains shown)
VH: B4 VH with L70M
VL: B4 VL
notes: as for B4
B13: HuEM0004-38-10 (antibody, human IgG1, kappa, L234A L235A, V domains shown)
VH: B4 VH with M48I, R67K
VL: B4 VL with S42A, V45L
notes: as for B4
B14: HuEM0004-38-14 (antibody, human IgG1, kappa, L234A L235A, V domains shown)
VH: B4 VH with M48I
VL: B4 VL
notes: as for B4
B15: HuEM0004-38-17 (antibody, human IgG1, kappa, L234A L235A, V domains shown)
VH: B4 VH with L70M
VL: B4 VL with I57V
notes: as for B4
B16: HuEM0004-38-8 (antibody, human IgG1, kappa, L234A L235A, V domains shown)
VH: B4 VH
VL: B4 VL with S42A, V45L
notes: as for B4
B17: HuEM0004-38-6 (antibody, human IgG1, kappa, L234A L235A, V domains shown)
VH: B4 VH with L70M, K74T
VL: B4 VL with S42A, V45L
B18: HuEM0004-38-9 (antibody, human IgG1, kappa, L234A L235A, V domains shown)
VH: B4 VH with M48I
VL: B4 VL with S42A, V45L

What follows are binders tested against T1, human CD39 protein (recombinant) (assay: ELISA on coated human CD39 protein).
Description: To determine if anti-CD39 mAbs bind to human CD39, ELISA plates were incubated overnight at 4° C. with human CD39 protein or mouse CD39 protein diluted in PBS, pH7.4 buffer at 1 μg/ml. Plates were washed four times in washing buffer (PBS containing 0.05% Tween 20), and blocked for 1 hour at 37° C. with 200 μl per well blocking buffer (1% BSA in PBS containing 0.05% Tween 20). After blocking buffer was removed, hybridoma supernatant or diluted purified Abs were added to the wells at 100 μl per well and incubated at 37° C. for 1 hour. The wells were washed four times with washing buffer, and anti-mouse HRP (for mouse anti-human CD39 Ab characterization) or anti-rat HRP (for rat anti-mouse CD39 Ab characterization) (Sigma) were 1:5000 diluted and added to the wells at 100 μl per well. The plates were incubated for 1 hour at 37° C. and washed four times in washing buffer. 100 μl of tetramethylbenzidine (TMB) chromogenic solution were added per well. Following color development, the reaction was stopped with 1N HCl, and absorbance at 450 nm was measured. The data were proceeded by GraphPad software.
Humanized antibodies HuEM04-38-6 to HuEM0004-38-20 and chimeric antibodies EM04-38c, EM004-38c1, and EM0004-38c2 were tested for CD39 specific binding by ELISA as described in Example 1.2 and for inhibition of protein-based ATPase activity as described in Example 1.3.

EC50 [µg/mL]	Binder
0.014	B1
0.023	B2
0.016	B3
0.023	B4
0.149	B5
0.031	B6
0.027	B7
0.031	B8
0.019	B9
0.02	B10
0.021	B11
0.023	B12
0.175	B13
0.021	B14
0.044	B15
0.097	B16

These binders were tested against T1, human CD39 protein (recombinant) (assay: cell-based or functional assay).

ATPase inhibition IC50 [nM]	ATPase inhibition, inhibition % [%]	Binder
24.2	107	B1
15.6	102	B2
14.3	103	B3
140	64.1	B17
36.2	98.7	B4
79.6	61.6	B18
83.5	71.4	B5
27.3	100	B6
41	102	B7
40.9	97.6	B8
18.9	98.5	B9
33.2	99.2	B10
65.3	99.6	B11
46.9	103	B12
83.2	71.5	B13
36.9	98.9	B14
20.4	103	B15
81.8	67.9	B16
